This note sets out measurements from patent US20240092872A1 (VIR BIOTECHNOLOGY, published 2024).

Assay [1] has as its target T1, Recombinant human FcγRIIIa (F158) (human, UniProt P08637 17-208).
T1 construct: also called FcγRIIIa allele F158; His-tagged human FcγRIIIa F158
Nature of the assay: BLI (Octet RED96); His-tagged FcγR on anti-penta-His sensors, 2 µg/ml mAb cross-linked with anti-human F(ab')2. Background: BLI is a label-free optical method that tracks binding on a fibre tip over time.
Procedure: (§1) Briefly, His-tagged human FcγRs (FcγRIIa allele H131, FcγRIIa allele R131, FcγRIIAa allele F158, FcγRIIIa allele V158 and FcγRIIb) at 2 μg/ml were captured onto anti-penta-His sensors for 6 minutes. FcγR-loaded sensors were then exposed for 4 minutes to a solution of kinetics buffer (pH 7.1) containing 2 μg/ml of each mAb in the presence 1 μg/ml of affiniPure F(ab′)₂ Fragment Goat Anti-Human IgG, F(ab′)₂ fragment-specific (to cross-link human mAbs through the Fab fragment), followed by a dissociation step in the same buffer for 4 additional minutes (right part of the plot). Association and dissociation profiles were measured in real time as change in the interference pattern using an Octet RED96 (FortéBio).

The target in assay [2] is T2, Recombinant human FcγRIIa (H131) (human, UniProt P12318 34-218).
T2 construct: also called FcγRIIa allele H131; His-tagged human FcγRIIa H131
T2 sequence: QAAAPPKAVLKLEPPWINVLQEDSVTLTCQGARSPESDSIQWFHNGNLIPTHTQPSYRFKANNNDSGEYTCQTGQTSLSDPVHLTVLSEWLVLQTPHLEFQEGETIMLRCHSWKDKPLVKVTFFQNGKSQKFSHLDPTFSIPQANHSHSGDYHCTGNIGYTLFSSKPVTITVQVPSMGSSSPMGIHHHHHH
The assay is described as above.
Procedure: as §1

Assay [3] deals with T3, Recombinant human FcγRIIIa (V158) (human, UniProt P08637 17-208).
T3 construct: also called FcγRIIIa allele V158; His-tagged human FcγRIIIa V158
T3 sequence (P08637 other isoform, or with tags, fused parts or gaps limits assumed): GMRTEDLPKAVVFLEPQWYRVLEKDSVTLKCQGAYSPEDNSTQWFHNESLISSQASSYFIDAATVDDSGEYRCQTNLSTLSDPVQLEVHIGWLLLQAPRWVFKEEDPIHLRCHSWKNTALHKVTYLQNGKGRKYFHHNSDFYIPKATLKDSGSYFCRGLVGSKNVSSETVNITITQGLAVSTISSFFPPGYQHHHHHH
The description is as above.
Procedure: as §1

The target in assay [4] is T4, His-tagged human FcγRIIa allele R131 (human, UniProt P12318 34-218).
T4 construct: also called FcγRIIa R131
T4 sequence (looked up): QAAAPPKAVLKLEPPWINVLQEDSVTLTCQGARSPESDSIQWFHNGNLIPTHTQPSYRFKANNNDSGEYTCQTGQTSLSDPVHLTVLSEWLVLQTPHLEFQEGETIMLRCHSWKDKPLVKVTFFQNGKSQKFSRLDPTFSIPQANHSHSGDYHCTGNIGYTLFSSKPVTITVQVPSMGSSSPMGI
The assay is described as above.
Procedure: as §1

The target in assay [5] is T5, Human complement component C1q (human, UniProt P02745 23-245; P02746 28-253; P02747 29-245).
T5 construct: mature; also called purified human C1q
T5 sequence (P02745 23-245, chain 1 of 3): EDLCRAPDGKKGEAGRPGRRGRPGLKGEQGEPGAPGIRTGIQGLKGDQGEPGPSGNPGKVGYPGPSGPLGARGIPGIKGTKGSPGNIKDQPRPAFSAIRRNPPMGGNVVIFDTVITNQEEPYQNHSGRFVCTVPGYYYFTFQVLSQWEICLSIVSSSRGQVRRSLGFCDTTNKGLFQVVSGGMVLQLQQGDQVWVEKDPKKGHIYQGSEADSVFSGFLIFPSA
T5 sequence (P02746 28-253, chain 2 of 3): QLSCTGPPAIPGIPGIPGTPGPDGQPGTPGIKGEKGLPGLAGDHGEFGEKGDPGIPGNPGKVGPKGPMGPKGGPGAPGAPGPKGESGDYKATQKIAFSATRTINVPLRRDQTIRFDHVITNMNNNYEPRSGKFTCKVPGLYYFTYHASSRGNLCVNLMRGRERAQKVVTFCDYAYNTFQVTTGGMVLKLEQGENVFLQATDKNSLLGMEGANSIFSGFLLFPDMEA
T5 sequence (P02747 29-245, chain 3 of 3): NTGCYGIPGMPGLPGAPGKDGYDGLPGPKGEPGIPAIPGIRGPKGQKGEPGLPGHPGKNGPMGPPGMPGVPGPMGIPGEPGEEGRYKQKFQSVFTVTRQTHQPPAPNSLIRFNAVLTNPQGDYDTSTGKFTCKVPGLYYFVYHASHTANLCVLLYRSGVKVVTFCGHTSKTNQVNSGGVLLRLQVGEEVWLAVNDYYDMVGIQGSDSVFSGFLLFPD
Nature of the assay: BLI (Octet RED96); IgG captured through the Fab on anti-human Fab (CH1) sensors.
Procedure: IgG-loaded sensors were then exposed for 4 minutes to a solution of kinetics buffer (pH 7.1) containing 3 μg/ml of purified human C1q (left part of the plot), followed by a dissociation step in the same buffer for 4 additional minutes (right part of the plot). Association and dissociation profiles were measured in real time as change in the interference pattern using an Octet RED96 (FortéBio).

T1 sequence (P08637 other isoform, or with tags, fused parts or gaps limits assumed): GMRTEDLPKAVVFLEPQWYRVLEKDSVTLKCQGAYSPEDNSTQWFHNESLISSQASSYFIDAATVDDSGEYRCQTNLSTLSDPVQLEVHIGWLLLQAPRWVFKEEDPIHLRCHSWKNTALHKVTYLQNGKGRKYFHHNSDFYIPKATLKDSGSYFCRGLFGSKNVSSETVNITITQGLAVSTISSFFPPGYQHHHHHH

B1: HBC34-V35-MLNS-GAALIE (antibody, human IgG1, lambda)
heavy: ELQLVESGGGWVQPGGSQRLSCAASGRIFRSFYMSWVRQAPGKGLEWVATINQDGSEKLYVDSVKGRFTISRDNAKNSLFLQMNNLRVEDTAVYYCAAWSGNSGGMDVWGQGTTVSVSSASTKGPSVFPLAPSSKSTSGGTAALGCLVKDYFPEPVTVSWNSGALTSGVHTFPAVLQSSGLYSLSSVVTVPSSSLGTQTYICNVNHKPSNTKVDKKVEPKSCDKTHTCPPCPAPELLAGPSVFLFPPKPKDTLMISRTPEVTCVVVDVSHEDPEVKFNWYVDGVEVHNAKTKPREEQYNSTYRVVSVLTVLHQDWLNGKEYKCKVSNKALPLPEEKTISKAKGQPREPQVYTLPPSRDELTKNQVSLTCLVKGFYPSDIAVEWESNGQPENNYKTTPPVLDSDGSFFLYSKLTVDKSRWQQGNVFSCSVLHEALHSHYTQKSLSLSPGK
light: SYELTQPPSVSVSPGQTVSIPCSGDKLGNKNVAWFQHKPGQSPVLVIYEVKYRPSGIPERFSGSNSGNTATLTISGTQAMDEAAYFCQTFDSTTVVFGGGTRLTVLGQPKAAPSVTLFPPSSEELQANKATLVCLISDFYPGAVTVAWKADSSPVKAGVETTTPSKQSNNKYAASSYLSLTPEQWKSHRSYSCQVTHEGSTVEKTVAPTECS
Turning to B1, the binding result was “binds” in assay [1]; “binds” in assay [2]; “binds” in assay [3]; “binds” in assay [4]; “no binding (tested: 3 µg/ml of purified human C1q)” in assay [5].
